Reference: article PMC3531475

Columns and labels:
[1] = target: T1, adiponectin receptor type 1 (AdipoR1) (human (endogenous in SH-SY5Y)) (UniProt Q96A54)
T1 sequence: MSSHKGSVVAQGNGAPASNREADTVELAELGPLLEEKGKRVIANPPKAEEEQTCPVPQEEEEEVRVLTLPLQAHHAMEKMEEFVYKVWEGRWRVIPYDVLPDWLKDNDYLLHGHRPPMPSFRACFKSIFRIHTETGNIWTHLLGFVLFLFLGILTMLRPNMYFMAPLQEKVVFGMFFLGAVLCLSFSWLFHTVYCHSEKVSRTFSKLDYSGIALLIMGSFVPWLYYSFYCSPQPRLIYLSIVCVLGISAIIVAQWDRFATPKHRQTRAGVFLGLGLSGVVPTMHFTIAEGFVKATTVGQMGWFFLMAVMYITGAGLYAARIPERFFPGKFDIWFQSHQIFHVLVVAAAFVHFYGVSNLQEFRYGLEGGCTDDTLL

[2] = target: T2, adiponectin receptor type 2 (AdipoR2) (human (endogenous in SH-SY5Y)) (UniProt Q86V24)
T2 sequence: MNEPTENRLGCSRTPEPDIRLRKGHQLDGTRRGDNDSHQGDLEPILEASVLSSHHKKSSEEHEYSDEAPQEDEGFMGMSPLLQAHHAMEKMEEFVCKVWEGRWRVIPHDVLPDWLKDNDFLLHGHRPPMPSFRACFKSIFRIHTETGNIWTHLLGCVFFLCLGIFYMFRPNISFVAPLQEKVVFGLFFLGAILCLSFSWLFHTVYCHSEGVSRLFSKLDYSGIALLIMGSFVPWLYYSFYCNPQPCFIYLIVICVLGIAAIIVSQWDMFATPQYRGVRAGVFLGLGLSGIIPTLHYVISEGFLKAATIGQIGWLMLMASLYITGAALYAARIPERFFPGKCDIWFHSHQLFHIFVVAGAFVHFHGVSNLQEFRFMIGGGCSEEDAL

## Mouse recombinant adiponectin (from UniProt Q60994 18-247) (ligand)
[1]
  cytotoxicity (LDH release, fold of untreated) of Sw-APP transfected SH-SY5Y cells under H2O2 (200-800 µM), with adiponectin 10 µg/ml for 2 hours beforehand; most marked at 400 µM H2O2 (fold cytotoxicity): 2.7
[2]
  cytotoxicity (LDH release, fold of untreated) of Sw-APP transfected SH-SY5Y cells under H2O2 (200-800 µM), with adiponectin 10 µg/ml for 2 hours beforehand; most marked at 400 µM H2O2 (fold cytotoxicity): 2.7
